These results are taken from patent US20090041770A1.

This test deals with human FcRn fused to a His-tag and glutathione S transferase (FcRn-His-GST), complex of FcRn heavy chain with beta-2-microglobulin (human) (UniProt P55899). The test is described as follows: AlphaScreen competition. A general note: In Alpha technology, singlet oxygen from a donor bead excites a nearby acceptor bead.

Take E258Y (antibody): the FcRn Binding ratio Variant / WT stood at 1.07.
For A327K (antibody), the FcRn Binding ratio Variant / WT turned out to be 1.01.
For H268M (antibody), the FcRn Binding ratio Variant / WT was determined as 1.88.
Turning to G281Y (antibody), the FcRn Binding ratio Variant / WT turned out to be 1.46.
To V282G (antibody) belongs 1.16; to E233G (antibody), 2.09.
On to L234H (antibody), for which the FcRn Binding ratio Variant / WT was 1.48.
To E233Y (antibody) belongs 1.86; to G236Y (antibody), 1.52.
For the substance T225W (antibody), the FcRn Binding ratio Variant / WT stood at 6.89.
Take E318R (antibody): the FcRn Binding ratio Variant / WT was determined as 1.17.
The result for I336E (antibody) reads 8.11; that for S239G (antibody), 1.16.
As to P230E (antibody), the FcRn Binding ratio Variant / WT was 1.01.
Regarding L235Q (antibody), the FcRn Binding ratio Variant / WT amounted to 1.67.
The result for V264S (antibody) reads 5.13; that for I332T (antibody), 1.02; that for P238D (antibody), 1.03.
H285E (antibody): the FcRn Binding ratio Variant / WT was 1.93.
In the case of G236I (antibody), the FcRn Binding ratio Variant / WT came to 1.33.
With G237I (antibody), the FcRn Binding ratio Variant / WT was found to be 1.01.
On to E283Y (antibody), for which the FcRn Binding ratio Variant / WT is 1.42.
For the substance P238K (antibody), the FcRn Binding ratio Variant / WT came out at 5.01.
Turning to A330W (antibody), the FcRn Binding ratio Variant / WT worked out at 1.02.
Turning to P238I (antibody), the FcRn Binding ratio Variant / WT stood at 1.44.
For the substance L328N/I332E (antibody), the FcRn Binding ratio Variant / WT stood at 1.18.
T299H (antibody): the FcRn Binding ratio Variant / WT amounted to 2.03.
As to D265G (antibody), the FcRn Binding ratio Variant / WT came to 1.74.
Regarding H285W (antibody), the FcRn Binding ratio Variant / WT was 1.33.
Regarding P227E (antibody), the FcRn Binding ratio Variant / WT stood at 1.49.
As for N325D (antibody), the FcRn Binding ratio Variant / WT is 1.45.
As to T335I (antibody), the FcRn Binding ratio Variant / WT was found to be 1.41.
The result for T299W (antibody) reads 1.09; that for S239E/V264I/A330Y/I332E (antibody), 2.36.
The result for E333F (antibody) reads 1.96.
For the substance G236E (antibody), the FcRn Binding ratio Variant / WT was 1.46.
L328G (antibody): the FcRn Binding ratio Variant / WT amounted to 1.16.
The result for E269I (antibody) reads 1.26; that for G237Q (antibody), 1.39; that for S239D/E272Y/I332E (antibody), 1.31.
Take S239L (antibody): the FcRn Binding ratio Variant / WT was determined as 4.6.
Regarding V266I (antibody), the FcRn Binding ratio Variant / WT was 1.17.
For S304N (antibody), the FcRn Binding ratio Variant / WT was found to be 1.19.
Take Q295T (antibody): the FcRn Binding ratio Variant / WT was found to be 3.82.
For the substance P227G (antibody), the FcRn Binding ratio Variant / WT was found to be 1.67.
With F241W/F243W/V262A/V264A (antibody), the FcRn Binding ratio Variant / WT turned out to be 1.91.
Consider K320H (antibody), for which the FcRn Binding ratio Variant / WT is 1.13.
Turning to G236M (antibody), the FcRn Binding ratio Variant / WT stood at 1.6.
Regarding K274T (antibody), the FcRn Binding ratio Variant / WT was found to be 1.08.
For R292E (antibody), the FcRn Binding ratio Variant / WT stood at 1.45.
The result for V264I/I332E (antibody) reads 1.7.
Regarding N276F (antibody), the FcRn Binding ratio Variant / WT is 1.18.
In the case of V264N (antibody), the FcRn Binding ratio Variant / WT was found to be 3.39.
With E333L (antibody), the FcRn Binding ratio Variant / WT stood at 1.03.
For the substance K288Y (antibody), the FcRn Binding ratio Variant / WT was found to be 1.1.
The result for N276W (antibody) reads 2.
Consider S324G (antibody), for which the FcRn Binding ratio Variant / WT worked out at 2.74.
K320N (antibody): the FcRn Binding ratio Variant / WT was 2.01.
Turning to F241W/F243W (antibody), the FcRn Binding ratio Variant / WT was 1.12.
To R255E (antibody) belongs 1.16; to H285D (antibody), 2.4; to P291H (antibody), 2.56.
For T299F (antibody), the FcRn Binding ratio Variant / WT is 1.86.
As to G281D (antibody), the FcRn Binding ratio Variant / WT was determined as 1.33.
As for Y278R (antibody), the FcRn Binding ratio Variant / WT came to 1.23.
As for S239D (antibody), the FcRn Binding ratio Variant / WT worked out at 1.73.
Consider S239T (antibody), for which the FcRn Binding ratio Variant / WT is 1.12.
The result for F241Y/F243Y/V262T/V264T (antibody) reads 1.89.
On to E272V (antibody), for which the FcRn Binding ratio Variant / WT was 1.77.
Consider I336K (antibody), for which the FcRn Binding ratio Variant / WT was 12.1.
Turning to V264I/A330L/I332E (antibody), the FcRn Binding ratio Variant / WT amounted to 1.13.
With L328H/I332E (antibody), the FcRn Binding ratio Variant / WT came out at 1.16.
The result for L234N (antibody) reads 1.06.
The result for I332N (antibody) reads 3.2; that for P291Q (antibody), 1.24; that for R292D (antibody), 1.67.
As for S239D/I332D (antibody), the FcRn Binding ratio Variant / WT was determined as 1.12.
As for E272D (antibody), the FcRn Binding ratio Variant / WT was 1.37.
In the case of G237R (antibody), the FcRn Binding ratio Variant / WT was determined as 1.36.
To A327Y (antibody) belongs 1.23; to V282K (antibody), 1.44; to N276L (antibody), 1.21.
The result for D221Y (antibody) reads 2.74; that for Y278M (antibody), 1.28.
On to Y300E (antibody), for which the FcRn Binding ratio Variant / WT was 1.27.
For L328E/I332E (antibody), the FcRn Binding ratio Variant / WT came out at 1.44.
As for N286E (antibody), the FcRn Binding ratio Variant / WT was determined as 2.12.
The result for A330V (antibody) reads 1.78; that for G237T (antibody), 1.32; that for P271T (antibody), 3.88.
In the case of H224E (antibody), the FcRn Binding ratio Variant / WT came out at 5.11.
The result for L235S (antibody) reads 1.51; that for Q295V (antibody), 1.19.
To P271Y (antibody) belongs 1.48.
For A330H (antibody), the FcRn Binding ratio Variant / WT is 9.87.
The result for S267K (antibody) reads 1.7.
Regarding Y300Q (antibody), the FcRn Binding ratio Variant / WT stood at 1.11.
For D265F/N297E/I332E (antibody), the FcRn Binding ratio Variant / WT was found to be 1.38.
For S298H (antibody), the FcRn Binding ratio Variant / WT was determined as 3.99.
For the substance P271A (antibody), the FcRn Binding ratio Variant / WT turned out to be 1.01.
To H285Y (antibody) belongs 1.25.
For L234I (antibody), the FcRn Binding ratio Variant / WT turned out to be 1.26.
Consider G236D (antibody), for which the FcRn Binding ratio Variant / WT is 1.53.
On to T335M (antibody), for which the FcRn Binding ratio Variant / WT worked out at 1.35.
The result for I332Y (antibody) reads 1.43; that for G237P (antibody), 2.8.
Turning to L235N (antibody), the FcRn Binding ratio Variant / WT turned out to be 1.32.
The result for H285K (antibody) reads 1.76; that for D265R (antibody), 1.16; that for E269Y (antibody), 24.8.
Consider P238T (antibody), for which the FcRn Binding ratio Variant / WT is 1.12.
As to A327M (antibody), the FcRn Binding ratio Variant / WT was determined as 1.08.
On to K274I (antibody), for which the FcRn Binding ratio Variant / WT was 1.08.
The result for I332Q (antibody) reads 1.2; that for P291I (antibody), 1.15.
For the substance N276D (antibody), the FcRn Binding ratio Variant / WT is 1.18.
L328W (antibody): the FcRn Binding ratio Variant / WT was 1.35.
In the case of S239E/I332E (antibody), the FcRn Binding ratio Variant / WT turned out to be 1.34.
For the substance S239D/N297D/I332E (antibody), the FcRn Binding ratio Variant / WT was 3.09.
The result for S239D/D265H/N297D/I332E (antibody) reads 1.26; that for E269G (antibody), 1.34.
Regarding E294K (antibody), the FcRn Binding ratio Variant / WT stood at 1.16.
Regarding F243L/V262I/V264W (antibody), the FcRn Binding ratio Variant / WT worked out at 1.35.
As for Y300G (antibody), the FcRn Binding ratio Variant / WT amounted to 1.07.
G236A (antibody): the FcRn Binding ratio Variant / WT is 1.75.
With H224Y (antibody), the FcRn Binding ratio Variant / WT came out at 1.68.
For the substance S239E (antibody), the FcRn Binding ratio Variant / WT stood at 1.47.
To P238L (antibody) belongs 1.71; to V240M (antibody), 2.5.
As for P238M (antibody), the FcRn Binding ratio Variant / WT was 2.33.
As for L234I/L235D (antibody), the FcRn Binding ratio Variant / WT was determined as 1.03.
Regarding Y278V (antibody), the FcRn Binding ratio Variant / WT is 1.27.
For T223E (antibody), the FcRn Binding ratio Variant / WT is 2.04.
To V302I (antibody) belongs 2.44.
For the substance D221K (antibody), the FcRn Binding ratio Variant / WT stood at 5.66.
Turning to G236T (antibody), the FcRn Binding ratio Variant / WT came out at 1.56.
